From the supplement of paper PMC9112550, “Optimization of the antimicrobial peptide Bac7 by deep mutational scanning” (BMC Biology, 2022) come the findings set out here.

The series concerns Escherichia coli TOP10. Briefly: shrunken log2 fold change of peptide-encoding DNA abundance (4.5 h post-induction vs induction); higher = less antimicrobial activity (less host growth inhibition). To be noted: time post-induction: 4.5 h; library: site-saturation at positions 5, 18, 19, 20.
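Further: peptides expressed intracellularly from a pBAD plasmid library in pooled LB shake-flask culture, induced with 0.3% L-arabinose, DNA abundance read by NGS, three biological replicates, DESeq2 with apeglm shrinkage.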

Regarding RRIRDRPPRLPRPRPRPYCKPRP, the “shrunken log2 fold change” value is 0.0343.
Consider RRIRFRPPRLPRPRPRPEMGPRP, for which the “shrunken log2 fold change” value came to 0.0117.
The value for RRIRCRPPRLPRPRPRPQIGPRP was -0.00649.
For the sequence RRIRRRPPRLPRPRPRPDMNPRP, the “shrunken log2 fold change” value is -0.00608.
On to RRIRVRPPRLPRPRPRPVPCPRP, for which the “shrunken log2 fold change” value was -0.162.
As to RRIRRRPPRLPRPRPRPCRRPRP, the “shrunken log2 fold change” value came out at 0.0946.
On to RRIRMRPPRLPRPRPRPKTWPRP, for which the “shrunken log2 fold change” value is 0.602.
In the case of RRIRSRPPRLPRPRPRPYNTPRP it was -1.1; in that of RRIRFRPPRLPRPRPRPEKSPRP, -0.101.
Turning to RRIRYRPPRLPRPRPRPMCMPRP, the “shrunken log2 fold change” value was -0.214.
With RRIRMRPPRLPRPRPRPSWHPRP, the “shrunken log2 fold change” value was -0.103.
As for RRIRWRPPRLPRPRPRPCLLPRP, the “shrunken log2 fold change” value was -0.188.
Take RRIRHRPPRLPRPRPRPFGDPRP: the “shrunken log2 fold change” value was -0.257.
Consider RRIRFRPPRLPRPRPRPNFLPRP, for which the “shrunken log2 fold change” value is -0.277.
Consider RRIRMRPPRLPRPRPRPYWAPRP, for which the “shrunken log2 fold change” value is -0.0573.
In the case of RRIRSRPPRLPRPRPRPHKNPRP it was -0.283.
Regarding RRIRNRPPRLPRPRPRPHAQPRP, the “shrunken log2 fold change” value was -0.835.
In the case of RRIRLRPPRLPRPRPRPRNYPRP it was -0.0808.
In the case of RRIRPRPPRLPRPRPRPSRSPRP it was 0.0328; in that of RRIRMRPPRLPRPRPRPWHGPRP, -0.0653; in that of RRIRKRPPRLPRPRPRPCAMPRP, 0.367.
In the case of RRIRWRPPRLPRPRPRPVFMPRP it was -0.0684; in that of RRIRNRPPRLPRPRPRPDQYPRP, -0.337.
As for RRIRKRPPRLPRPRPRPWLTPRP, the “shrunken log2 fold change” value came out at 0.0883.
For RRIRYRPPRLPRPRPRPFMIPRP, the “shrunken log2 fold change” value was -1.21.
RRIRARPPRLPRPRPRPRYYPRP: the “shrunken log2 fold change” value is -0.116.
Consider RRIRHRPPRLPRPRPRPKLVPRP, for which the “shrunken log2 fold change” value is -0.017.
Regarding RRIRTRPPRLPRPRPRPWCPPRP, the “shrunken log2 fold change” value is -0.139.
The value for RRIRFRPPRLPRPRPRPHRFPRP was -0.0456.
The value for RRIRFRPPRLPRPRPRPYIRPRP was -0.755; that for RRIRMRPPRLPRPRPRPYTIPRP was 0.0978; that for RRIRLRPPRLPRPRPRPKVLPRP was -0.128.
Consider RRIRHRPPRLPRPRPRPVQAPRP, for which the “shrunken log2 fold change” value was 0.00472.
The value for RRIRTRPPRLPRPRPRPENQPRP was 0.0593; that for RRIRLRPPRLPRPRPRPKLCPRP was 0.115.
The value for RRIRYRPPRLPRPRPRPEWIPRP was 0.0106.
For RRIRPRPPRLPRPRPRPESFPRP, the “shrunken log2 fold change” value is -0.216.
With RRIRQRPPRLPRPRPRPTWTPRP, the “shrunken log2 fold change” value is -0.0772.
Turning to RRIRARPPRLPRPRPRPVCKPRP, the “shrunken log2 fold change” value was determined as 0.195.
Consider RRIRARPPRLPRPRPRPNPIPRP, for which the “shrunken log2 fold change” value is -0.19.
In the case of RRIRCRPPRLPRPRPRPFDGPRP it was -0.0927; in that of RRIRCRPPRLPRPRPRPSWMPRP, 0.326; in that of RRIRMRPPRLPRPRPRPWSWPRP, -0.00716.
For the sequence RRIRYRPPRLPRPRPRPKFCPRP, the “shrunken log2 fold change” value was -0.291.
For RRIRQRPPRLPRPRPRPLMVPRP, the “shrunken log2 fold change” value was -0.13.
In the case of RRIRSRPPRLPRPRPRPAQTPRP, the “shrunken log2 fold change” value was found to be 0.0615.
Regarding RRIRFRPPRLPRPRPRPTMTPRP, the “shrunken log2 fold change” value is -0.0114.
On to RRIRGRPPRLPRPRPRPFTYPRP, for which the “shrunken log2 fold change” value was 0.0977.
With RRIRVRPPRLPRPRPRPIKTPRP, the “shrunken log2 fold change” value was determined as 0.059.
In the case of RRIRIRPPRLPRPRPRPMYCPRP, the “shrunken log2 fold change” value was -0.183.
In the case of RRIRCRPPRLPRPRPRPAEDPRP, the “shrunken log2 fold change” value turned out to be 0.213.
RRIRPRPPRLPRPRPRPVYIPRP: the “shrunken log2 fold change” value is -0.684.
With RRIRERPPRLPRPRPRPGYPPRP, the “shrunken log2 fold change” value was -0.216.
Take RRIRVRPPRLPRPRPRPTSKPRP: the “shrunken log2 fold change” value is -0.144.
In the case of RRIRKRPPRLPRPRPRPLYQPRP it was -0.187; in that of RRIRMRPPRLPRPRPRPQCTPRP, 0.0479.
Take RRIRDRPPRLPRPRPRPMAPPRP: the “shrunken log2 fold change” value came out at 0.982.
In the case of RRIRKRPPRLPRPRPRPLCSPRP it was 0.0457; in that of RRIRLRPPRLPRPRPRPGTAPRP, 0.362.
The value for RRIRNRPPRLPRPRPRPNGGPRP was 0.153; that for RRIRRRPPRLPRPRPRPWNNPRP was -0.173.
For RRIRCRPPRLPRPRPRPLNYPRP, the “shrunken log2 fold change” value worked out at 0.101.
Take RRIRKRPPRLPRPRPRPECMPRP: the “shrunken log2 fold change” value amounted to 1.58.
RRIRLRPPRLPRPRPRPFYHPRP: the “shrunken log2 fold change” value is -0.821.
For RRIRERPPRLPRPRPRPRHQPRP, the “shrunken log2 fold change” value was -0.164.
On to RRIRKRPPRLPRPRPRPPKNPRP, for which the “shrunken log2 fold change” value was 0.546.
Take RRIRARPPRLPRPRPRPDCWPRP: the “shrunken log2 fold change” value came out at 1.21.
Regarding RRIRGRPPRLPRPRPRPHQMPRP, the “shrunken log2 fold change” value was determined as 0.532.
In the case of RRIRLRPPRLPRPRPRPAWLPRP it was 0.229; in that of RRIRPRPPRLPRPRPRPWRHPRP, -0.0659.
Turning to RRIRWRPPRLPRPRPRPCQSPRP, the “shrunken log2 fold change” value was -0.098.
Consider RRIRKRPPRLPRPRPRPNRQPRP, for which the “shrunken log2 fold change” value is 1.09.
For the sequence RRIRERPPRLPRPRPRPLGRPRP, the “shrunken log2 fold change” value is -0.0894.
Turning to RRIRGRPPRLPRPRPRPEKNPRP, the “shrunken log2 fold change” value is 0.921.
As to RRIRGRPPRLPRPRPRPKAIPRP, the “shrunken log2 fold change” value was 0.363.
Take RRIRCRPPRLPRPRPRPQGDPRP: the “shrunken log2 fold change” value was 0.0138.
Consider RRIRFRPPRLPRPRPRPLGDPRP, for which the “shrunken log2 fold change” value came out at 0.4.
In the case of RRIRYRPPRLPRPRPRPQNAPRP, the “shrunken log2 fold change” value is -0.369.
Consider RRIRNRPPRLPRPRPRPETQPRP, for which the “shrunken log2 fold change” value was 0.162.
With RRIRFRPPRLPRPRPRPMYWPRP, the “shrunken log2 fold change” value is 0.146.
Consider RRIRWRPPRLPRPRPRPWDMPRP, for which the “shrunken log2 fold change” value is -0.00946.
For RRIRRRPPRLPRPRPRPRWLPRP, the “shrunken log2 fold change” value was 0.388.
With RRIRCRPPRLPRPRPRPRRCPRP, the “shrunken log2 fold change” value worked out at 0.42.
Consider RRIRHRPPRLPRPRPRPRHSPRP, for which the “shrunken log2 fold change” value was -0.173.
Regarding RRIRNRPPRLPRPRPRPNFNPRP, the “shrunken log2 fold change” value was -0.734.
Consider RRIRERPPRLPRPRPRPQNYPRP, for which the “shrunken log2 fold change” value is -0.409.
Consider RRIRWRPPRLPRPRPRPDLSPRP, for which the “shrunken log2 fold change” value was 0.000407.
In the case of RRIRTRPPRLPRPRPRPASRPRP, the “shrunken log2 fold change” value was 0.279.
RRIRNRPPRLPRPRPRPDCDPRP: the “shrunken log2 fold change” value was -0.132.
Regarding RRIRIRPPRLPRPRPRPTERPRP, the “shrunken log2 fold change” value is -0.0197.
Regarding RRIRRRPPRLPRPRPRPELHPRP, the “shrunken log2 fold change” value was 0.793.
As for RRIRLRPPRLPRPRPRPNLIPRP, the “shrunken log2 fold change” value is -0.117.
Turning to RRIRQRPPRLPRPRPRPILQPRP, the “shrunken log2 fold change” value stood at 0.292.
Turning to RRIRTRPPRLPRPRPRPSWQPRP, the “shrunken log2 fold change” value was -0.073.
Take RRIRYRPPRLPRPRPRPVCNPRP: the “shrunken log2 fold change” value was -0.649.
As for RRIRFRPPRLPRPRPRPINDPRP, the “shrunken log2 fold change” value was -0.241.
As to RRIRVRPPRLPRPRPRPCSDPRP, the “shrunken log2 fold change” value is -0.0601.
As for RRIRSRPPRLPRPRPRPQFWPRP, the “shrunken log2 fold change” value stood at 0.268.
The value for RRIRDRPPRLPRPRPRPSRFPRP was 0.128; that for RRIRIRPPRLPRPRPRPWFDPRP was -0.184; that for RRIRLRPPRLPRPRPRPSLFPRP was -0.373.
In the case of RRIRHRPPRLPRPRPRPWRAPRP, the “shrunken log2 fold change” value was -0.0415.
Consider RRIRIRPPRLPRPRPRPQMTPRP, for which the “shrunken log2 fold change” value was -0.733.
In the case of RRIRYRPPRLPRPRPRPFSGPRP, the “shrunken log2 fold change” value came to 0.0211.
RRIRRRPPRLPRPRPRPMRDPRP: the “shrunken log2 fold change” value is 0.62.
The value for RRIRHRPPRLPRPRPRPYWIPRP was -0.124; that for RRIRRRPPRLPRPRPRPRWWPRP was 0.318; that for RRIRNRPPRLPRPRPRPEKWPRP was -0.0101.
Regarding RRIRARPPRLPRPRPRPHMNPRP, the “shrunken log2 fold change” value is -0.245.
With RRIRDRPPRLPRPRPRPLIDPRP, the “shrunken log2 fold change” value stood at 0.0319.
On to RRIRMRPPRLPRPRPRPSVGPRP, for which the “shrunken log2 fold change” value stood at 0.357.
Consider RRIRQRPPRLPRPRPRPLKTPRP, for which the “shrunken log2 fold change” value came to 0.0342.
In the case of RRIRARPPRLPRPRPRPVDEPRP it was 0.33; in that of RRIRKRPPRLPRPRPRPWVTPRP, 0.000269; in that of RRIRTRPPRLPRPRPRPIIRPRP, -0.0034.
In the case of RRIRKRPPRLPRPRPRPWNQPRP, the “shrunken log2 fold change” value was -0.0169.
On to RRIRPRPPRLPRPRPRPPIIPRP, for which the “shrunken log2 fold change” value was -0.231.
On to RRIRCRPPRLPRPRPRPNHNPRP, for which the “shrunken log2 fold change” value is -0.975.
Take RRIRNRPPRLPRPRPRPCWKPRP: the “shrunken log2 fold change” value was -0.0657.
In the case of RRIRERPPRLPRPRPRPKIHPRP it was -0.233; in that of RRIRDRPPRLPRPRPRPNQVPRP, -0.329.
As for RRIRGRPPRLPRPRPRPPMCPRP, the “shrunken log2 fold change” value came to 0.525.
RRIRGRPPRLPRPRPRPHFNPRP: the “shrunken log2 fold change” value was 0.232.
In the case of RRIRTRPPRLPRPRPRPPPIPRP it was 0.451; in that of RRIRSRPPRLPRPRPRPKWYPRP, -0.336.
